Data published in article PMC9482650, “Quantitative fragmentomics allow affinity mapping of interactomes” (Nature Communications, 2022).

T1: ARHGEF11, O15085
T1 sequence (O15085 42-136, limits assumed, looked up): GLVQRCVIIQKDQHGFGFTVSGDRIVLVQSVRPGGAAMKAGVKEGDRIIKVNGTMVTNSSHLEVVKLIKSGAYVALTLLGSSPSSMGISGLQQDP

T2: DFNB31_1, Q9P202
T2 sequence (Q9P202 135-233, limits assumed, looked up): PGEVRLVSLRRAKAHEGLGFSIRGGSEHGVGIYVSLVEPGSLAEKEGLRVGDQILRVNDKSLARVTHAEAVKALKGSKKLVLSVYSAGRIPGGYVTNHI

T3: GRIP1_7, Q9Y3R0
T3 sequence (Q9Y3R0 999-1096, limits assumed, looked up): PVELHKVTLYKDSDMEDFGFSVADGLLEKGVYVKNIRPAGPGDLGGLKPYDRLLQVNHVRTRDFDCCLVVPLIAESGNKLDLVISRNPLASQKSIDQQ

T4: HTRA4, P83105
T4 sequence (P83105 378-476, limits assumed, looked up): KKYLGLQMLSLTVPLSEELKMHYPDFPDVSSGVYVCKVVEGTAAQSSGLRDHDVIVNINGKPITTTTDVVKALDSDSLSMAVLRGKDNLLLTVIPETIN

T5: LIN7A, O14910
T5 sequence (O14910 103-200, limits assumed, looked up): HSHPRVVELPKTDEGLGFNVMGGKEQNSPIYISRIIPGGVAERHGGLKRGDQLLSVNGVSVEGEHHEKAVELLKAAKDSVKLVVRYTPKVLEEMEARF

T6: LNX2_2, Q8N448
T6 sequence (Q8N448 334-432, limits assumed, looked up): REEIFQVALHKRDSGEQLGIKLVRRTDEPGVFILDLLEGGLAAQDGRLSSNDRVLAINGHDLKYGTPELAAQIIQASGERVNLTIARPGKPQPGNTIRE

T7: MPDZ_10, O75970
T7 sequence (O75970 1624-1722, limits assumed, looked up): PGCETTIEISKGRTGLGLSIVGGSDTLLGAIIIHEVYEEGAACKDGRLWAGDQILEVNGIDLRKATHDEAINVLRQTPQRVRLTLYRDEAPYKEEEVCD

T8: MPP2, Q14168
T8 sequence (Q14168 180-250, limits assumed, looked up): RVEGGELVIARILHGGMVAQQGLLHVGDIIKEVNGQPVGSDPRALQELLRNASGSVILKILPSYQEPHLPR

T9: NHERF3_4, Q5T2W1
T9 sequence (Q5T2W1 373-468, limits assumed, looked up): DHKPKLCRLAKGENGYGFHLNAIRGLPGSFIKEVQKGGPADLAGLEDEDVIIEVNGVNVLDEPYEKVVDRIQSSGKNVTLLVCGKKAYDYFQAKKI

T10: PCLO, Q9Y6V0
T10 sequence (Q9Y6V0 4491-4600, limits assumed, looked up): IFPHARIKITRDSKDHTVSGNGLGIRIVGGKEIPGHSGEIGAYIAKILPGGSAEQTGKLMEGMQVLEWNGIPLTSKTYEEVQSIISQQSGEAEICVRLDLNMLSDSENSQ

T11: RADIL, Q96JH8
T11 sequence (Q96JH8 971-1071, limits assumed, looked up): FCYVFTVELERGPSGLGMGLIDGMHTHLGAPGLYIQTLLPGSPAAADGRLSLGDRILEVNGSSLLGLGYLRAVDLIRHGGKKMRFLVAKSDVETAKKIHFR

T12: TX1BP3, O14907
T12 sequence (O14907 10-122, limits assumed, looked up): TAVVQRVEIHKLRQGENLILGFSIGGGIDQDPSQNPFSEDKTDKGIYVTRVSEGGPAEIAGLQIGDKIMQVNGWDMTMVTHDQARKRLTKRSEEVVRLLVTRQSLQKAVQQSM


Biological target: T1, ARHGEF11, O15085
Assay: holdup assay
Design: key: below the threshold = too weak to quantify, mostly under pKd 3.1 to 4
Settings: plain residues with an end cap or a label only (N-terminal biotin on a linker: ado-ado)

| pKd | Binder |
| --- | --- |
| below the threshold | KKAPTNEFYA [SDC4, P31431] |

Biological target: T2, DFNB31_1, Q9P202
Assay: holdup assay
Design: key: below the threshold = too weak to quantify, mostly under pKd 3.1 to 4
Settings: plain residues with an end cap or a label only (N-terminal biotin on a linker: ado-ado)

| pKd | Binder |
| --- | --- |
| below the threshold | KKAPTNEFYA [SDC4, P31431] |

Biological target: FRMPD2_1, Q68DX3
Sequence (Q68DX3 770-861): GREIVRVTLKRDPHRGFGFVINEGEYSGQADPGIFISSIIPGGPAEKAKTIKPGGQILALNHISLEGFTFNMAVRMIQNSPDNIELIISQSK
Assay: holdup assay
Design: key: below the threshold = too weak to quantify, mostly under pKd 3.1 to 4
Settings: plain residues with an end cap or a label only (N-terminal biotin on a linker: ado-ado)

| pKd | Binder |
| --- | --- |
| 3.51 | KKAPTNEFYA [SDC4, P31431] |

Biological target: FRMPD2_2, Q68DX3
Sequence (Q68DX3 944-1038): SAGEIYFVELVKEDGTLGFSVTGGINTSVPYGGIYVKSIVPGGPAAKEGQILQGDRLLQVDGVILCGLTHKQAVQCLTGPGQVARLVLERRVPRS
Assay: holdup assay
Design: key: below the threshold = too weak to quantify, mostly under pKd 3.1 to 4
Settings: plain residues with an end cap or a label only (N-terminal biotin on a linker: ado-ado)

| pKd | Binder |
| --- | --- |
| below the threshold | KKAPTNEFYA [SDC4, P31431] |

Biological target: GOPC, Q9HD26
Assay: holdup assay
Design: key: below the threshold = too weak to quantify, mostly under pKd 3.1 to 4
Settings: plain residues with an end cap or a label only (N-terminal biotin on a linker: ado-ado)

| pKd | Binder |
| --- | --- |
| below the threshold | KKAPTNEFYA [SDC4, P31431] |

Biological target: T3, GRIP1_7, Q9Y3R0
Assay: holdup assay
Design: key: below the threshold = too weak to quantify, mostly under pKd 3.1 to 4
Settings: plain residues with an end cap or a label only (N-terminal biotin on a linker: ado-ado)

| pKd | Binder |
| --- | --- |
| below the threshold | KKAPTNEFYA [SDC4, P31431] |

Biological target: T4, HTRA4, P83105
Assay: holdup assay
Design: key: below the threshold = too weak to quantify, mostly under pKd 3.1 to 4
Settings: plain residues with an end cap or a label only (N-terminal biotin on a linker: ado-ado)

| pKd | Binder |
| --- | --- |
| below the threshold | KKAPTNEFYA [SDC4, P31431] |

Biological target: IL16_3, Q14005
Sequence (Q14005 1107-1207): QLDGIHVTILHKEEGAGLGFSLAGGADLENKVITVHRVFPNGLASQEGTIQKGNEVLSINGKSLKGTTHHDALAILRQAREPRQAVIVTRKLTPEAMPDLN
Assay: holdup assay
Design: key: below the threshold = too weak to quantify, mostly under pKd 3.1 to 4
Settings: plain residues with an end cap or a label only (N-terminal biotin on a linker: ado-ado)

| pKd | Binder |
| --- | --- |
| below the threshold | KKAPTNEFYA [SDC4, P31431] |

Biological target: Inadl_10, Q8NI35
Sequence (Q8NI35 1673-1763): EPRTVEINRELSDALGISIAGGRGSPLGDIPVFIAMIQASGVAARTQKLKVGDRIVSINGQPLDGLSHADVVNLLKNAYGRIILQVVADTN
Assay: holdup assay
Design: key: below the threshold = too weak to quantify, mostly under pKd 3.1 to 4
Settings: plain residues with an end cap or a label only (N-terminal biotin on a linker: ado-ado)

| pKd | Binder |
| --- | --- |
| below the threshold | KKAPTNEFYA [SDC4, P31431] |

Biological target: Inadl_5, Q8NI35
Sequence (Q8NI35 673-780): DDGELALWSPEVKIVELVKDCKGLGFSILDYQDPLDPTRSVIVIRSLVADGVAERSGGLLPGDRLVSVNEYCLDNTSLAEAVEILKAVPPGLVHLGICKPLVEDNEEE
Assay: holdup assay
Design: key: below the threshold = too weak to quantify, mostly under pKd 3.1 to 4
Settings: plain residues with an end cap or a label only (N-terminal biotin on a linker: ado-ado)

| pKd | Binder |
| --- | --- |
| below the threshold | KKAPTNEFYA [SDC4, P31431] |

Biological target: Inadl_9, Q8NI35
Sequence (Q8NI35 1530-1615): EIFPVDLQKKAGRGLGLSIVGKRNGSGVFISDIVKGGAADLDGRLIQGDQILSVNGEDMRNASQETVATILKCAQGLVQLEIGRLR
Assay: holdup assay
Design: key: below the threshold = too weak to quantify, mostly under pKd 3.1 to 4
Settings: plain residues with an end cap or a label only (N-terminal biotin on a linker: ado-ado)

| pKd | Binder |
| --- | --- |
| below the threshold | KKAPTNEFYA [SDC4, P31431] |

Biological target: T5, LIN7A, O14910
Assay: holdup assay
Design: key: below the threshold = too weak to quantify, mostly under pKd 3.1 to 4
Settings: plain residues with an end cap or a label only (N-terminal biotin on a linker: ado-ado)

| pKd | Binder |
| --- | --- |
| below the threshold | KKAPTNEFYA [SDC4, P31431] |

Biological target: LNX1_3, Q8TBB1
Sequence (Q8TBB1 500-596): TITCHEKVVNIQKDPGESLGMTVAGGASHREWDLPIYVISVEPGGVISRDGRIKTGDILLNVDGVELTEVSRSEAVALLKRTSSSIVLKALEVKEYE
Assay: holdup assay
Design: key: below the threshold = too weak to quantify, mostly under pKd 3.1 to 4
Settings: plain residues with an end cap or a label only (N-terminal biotin on a linker: ado-ado)

| pKd | Binder |
| --- | --- |
| below the threshold | KKAPTNEFYA [SDC4, P31431] |

Biological target: T6, LNX2_2, Q8N448
Assay: holdup assay
Design: key: below the threshold = too weak to quantify, mostly under pKd 3.1 to 4
Settings: plain residues with an end cap or a label only (N-terminal biotin on a linker: ado-ado)

| pKd | Binder |
| --- | --- |
| below the threshold | KKAPTNEFYA [SDC4, P31431] |

Biological target: MAGI1_1, Q96QZ7
Sequence (Q96QZ7 1-106): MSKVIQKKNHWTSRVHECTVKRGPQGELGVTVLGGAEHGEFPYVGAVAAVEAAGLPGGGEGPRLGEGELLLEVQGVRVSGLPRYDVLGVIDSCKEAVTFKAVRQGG
Assay: holdup assay
Design: key: below the threshold = too weak to quantify, mostly under pKd 3.1 to 4
Settings: plain residues with an end cap or a label only (N-terminal biotin on a linker: ado-ado)

| pKd | Binder |
| --- | --- |
| below the threshold | KKAPTNEFYA [SDC4, P31431] |

Biological target: MAGI1_2, Q96QZ7
Sequence (Q96QZ7 456-580): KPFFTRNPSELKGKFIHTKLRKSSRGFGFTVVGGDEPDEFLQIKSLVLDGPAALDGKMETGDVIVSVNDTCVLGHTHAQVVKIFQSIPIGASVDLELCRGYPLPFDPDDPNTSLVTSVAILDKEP
Assay: holdup assay
Design: key: below the threshold = too weak to quantify, mostly under pKd 3.1 to 4
Settings: plain residues with an end cap or a label only (N-terminal biotin on a linker: ado-ado)

| pKd | Binder |
| --- | --- |
| below the threshold | KKAPTNEFYA [SDC4, P31431] |

Biological target: MAGI3_2, Q5TCQ9
Sequence (Q5TCQ9 398-503): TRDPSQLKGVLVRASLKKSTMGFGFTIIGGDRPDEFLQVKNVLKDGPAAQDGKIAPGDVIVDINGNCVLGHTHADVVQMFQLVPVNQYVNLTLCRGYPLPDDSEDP
Assay: holdup assay
Design: key: below the threshold = too weak to quantify, mostly under pKd 3.1 to 4
Settings: plain residues with an end cap or a label only (N-terminal biotin on a linker: ado-ado)

| pKd | Binder |
| --- | --- |
| below the threshold | KKAPTNEFYA [SDC4, P31431] |

Biological target: T7, MPDZ_10, O75970
Assay: holdup assay
Design: key: below the threshold = too weak to quantify, mostly under pKd 3.1 to 4
Settings: plain residues with an end cap or a label only (N-terminal biotin on a linker: ado-ado)

| pKd | Binder |
| --- | --- |
| below the threshold | KKAPTNEFYA [SDC4, P31431] |

Biological target: T8, MPP2, Q14168
Assay: holdup assay
Design: key: below the threshold = too weak to quantify, mostly under pKd 3.1 to 4
Settings: plain residues with an end cap or a label only (N-terminal biotin on a linker: ado-ado)

| pKd | Binder |
| --- | --- |
| below the threshold | KKAPTNEFYA [SDC4, P31431] |

Biological target: T9, NHERF3_4, Q5T2W1
Assay: holdup assay
Design: key: below the threshold = too weak to quantify, mostly under pKd 3.1 to 4
Settings: plain residues with an end cap or a label only (N-terminal biotin on a linker: ado-ado)

| pKd | Binder |
| --- | --- |
| below the threshold | KKAPTNEFYA [SDC4, P31431] |

Biological target: T10, PCLO, Q9Y6V0
Assay: holdup assay
Design: key: below the threshold = too weak to quantify, mostly under pKd 3.1 to 4
Settings: plain residues with an end cap or a label only (N-terminal biotin on a linker: ado-ado)

| pKd | Binder |
| --- | --- |
| below the threshold | KKAPTNEFYA [SDC4, P31431] |

Biological target: T11, RADIL, Q96JH8
Assay: holdup assay
Design: key: below the threshold = too weak to quantify, mostly under pKd 3.1 to 4
Settings: plain residues with an end cap or a label only (N-terminal biotin on a linker: ado-ado)

| pKd | Binder |
| --- | --- |
| below the threshold | KKAPTNEFYA [SDC4, P31431] |

Biological target: TJP1_2, Q07157
Sequence (Q07157 181-274): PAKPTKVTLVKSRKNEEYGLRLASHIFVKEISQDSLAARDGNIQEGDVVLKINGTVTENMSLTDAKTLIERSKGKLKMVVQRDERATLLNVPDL
Assay: holdup assay
Design: key: below the threshold = too weak to quantify, mostly under pKd 3.1 to 4
Settings: plain residues with an end cap or a label only (N-terminal biotin on a linker: ado-ado)

| pKd | Binder |
| --- | --- |
| below the threshold | KKAPTNEFYA [SDC4, P31431] |

Biological target: TJP2_1, Q9UDY2
Sequence (Q9UDY2 24-128): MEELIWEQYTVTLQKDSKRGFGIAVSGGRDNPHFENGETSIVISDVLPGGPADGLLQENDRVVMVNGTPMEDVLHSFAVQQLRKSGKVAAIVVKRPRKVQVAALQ
Assay: holdup assay
Design: key: below the threshold = too weak to quantify, mostly under pKd 3.1 to 4
Settings: plain residues with an end cap or a label only (N-terminal biotin on a linker: ado-ado)

| pKd | Binder |
| --- | --- |
| below the threshold | KKAPTNEFYA [SDC4, P31431] |

Biological target: T12, TX1BP3, O14907
Assay: holdup assay
Design: key: below the threshold = too weak to quantify, mostly under pKd 3.1 to 4
Settings: plain residues with an end cap or a label only (N-terminal biotin on a linker: ado-ado)

| pKd | Binder |
| --- | --- |
| 3.85 | KKAPTNEFYA [SDC4, P31431] |
